Results on two substances are retold here after PMC12702981, “Population pharmacokinetics of efpeglenatide in individuals with obesity and with type 2 diabetes” (Frontiers in Pharmacology, 2025).

For series [1] the following is noted: ref Geiser et al., 2016; cited from earlier work. The source says:
This finding is aligned with the pharmacokinetic properties of Fc-fusion proteins, in which neonatal Fc receptor (FcRn)-mediated recycling limits proteolytic catabolism and prolongs systemic residence ([Richter and Jacobsen, 2014]).

The conditions of series [2]: human, in vivo.
Method: The population PK analysis was performed based on pooled data from one phase 1 and five phase 2 studies of efpeglenatide. […] Dosing regimens ranged from once weekly (QW) to every other week (Q2W) and once monthly (QM) subcutaneous administration.
The pooled dataset comprised six clinical studies (five studies in patients with T2DM and one study in obesity). A total of 3,596 plasma efpeglenatide concentration measurement were collected from 498 subjects across six clinical studies at prespecified time points.
All samples were analyzed at certified laboratories using validated analytical method. Serum concentrations of efpeglenatide were quantified using a validated Enzyme-Linked Immunosorbent Assay (ELISA) method.
For the PK analysis, 3,316 post-dose plasma concentrations above the lower limit of quantification (LLOQ) were used in the model estimation. All pre-dose concentrations before the first administration were excluded from the dataset. Post-dose samples below the limit of quantification (BLQ) were treated as missing (i.e., not included in the analysis). In total, 117 pre-dose samples (3.25%) and 153 post-dose samples (4.0%) were BLQ.
The base PK model evaluation was begun with a one-compartment disposition model with first-order elimination, with additional refinement to better characterize the absorption phase. […] The first one of the two divided doses was described as the first order absorption after bolus doses into depot compartment, capturing the first peak during the absorption phase. The second part of the dose was introduced to describe the second peak with time delay during absorption phase, which was described using a transit compartment model ([Savic et al., 2007]). […] After the absorption model was established, various compartment models were evaluated.
The transit compartment model describes the delay in absorption as the sequential passage of the drug through a chain of transit compartments, each connected by a first-order transit rate constant (Ktr). The number of transit compartments (n) and the mean transit time (MTT) were estimated from the data, with Ktr calculated as (n+1)/MTT. Drug exiting the final transit compartment entered the absorption compartment and was transferred to the central compartment via first-order absorption, as described by Equations 1–3.
The amount of drug administered subcutaneously (Asc) in the depot, central compartment (Ac) and peripheral compartment (Ap) were described using the following differential Equations 4–6: dAsc/dt=Dose·BIOA1+Dose·BIOA2·Ktr·t^n·e^−Ktr·t/2π·n^n+0.5·e^−n−ka·Asc (4) dAc/dt=ka·Asc−Ac/Vc·CL−Ac/Vc·Q+Ap/Vp·Q (5) dAp/dt=Ac/Vc·Q−Ap/Vp·Q (6)
To confine the estimated fraction values to the range between 0 and 1 and to allow implementation of interindividual variability, a logit transformation was applied. BIOA1 and BIOA2 represent the fractions of the administered dose entering the depot compartment via the bolus administration route and the delayed absorption route, respectively. The transformation was defined as shown in Equation 7 ([Adedokun et al., 2020]): BIOA1=e^BIOF/1+e^BIOF,BIOA2=1/1+e^BIOF (7) where BIOF is an unbounded parameter ( −∞∼∞ ) representing the logit-transformed value of BIOA1, and BIOA2 = 1-BIOA1
The population PK modeling analysis was performed using NONMEM version 7.5 (ICON Development Solutions, Hanover, MD, United States). The first-order conditional estimation method with interaction (FOCEI) was used to approximate the marginal likelihood and facilitate estimation of population model parameters.
The conditions of series [3]: patients with T2DM; ref Gerstein et al., 2021; cited from earlier work.
The conditions of series [4]: ref Yoon et al., 2020; cited from earlier work. The text has this:
Gastrointestinal (GI) adverse events are the most frequent class-related tolerability issues with GLP-1 receptor agonists, and stepwise dose-escalation regimens are commonly used to mitigate these events ([U.S. Food and Drug Administration, 2014]; [Davies et al., 2022]). […] Efpeglenatide has shown an adverse event profile consistent with this drug class ([Yoon et al., 2020]; [Gerstein et al., 2021]). The model-derived effective half- ...

Marks after values point to notes of the source that are not given here.

Take “dulaglutide: another Fc-fusion GLP-1 receptor agonist”: in series [1], the “CL, clearance” value is given as 0.059 L/h.

For the substance efpeglenatide, in series [2], the “BIOA1, dose fraction absorbed via the first-order pathway” value is given as 0.248 ^a; the “BIOA2, dose fraction absorbed via the transit-compartment pathway” value is 0.752 ^b; the “BIOF, logit parameter expressing the fraction of dose absorbed via the first-order and transit pathway” value was −1.11 [27.59]; the “CL/F in T2DM, clearance for patients with T2DM” value is 0.044 [1.50] L/h. In addition, in series [2], the “CL/F in obesity, clearance for obesity” value was 0.032 [1.79] L/h; the “Covariate effect (θ) of body weight on CL/F” value was 0.964 [6.75]; the “Covariate effect (θ) of body weight on ka” value was −0.927 [14.24]; the “Expected time to steady state” value is “≈ 4 weeks”. Also, in series [2], the “Higher clearance (CL/F) in T2DM than in obesity” value came to 38%; the “MTT, mean transit time” value was 2.680 [13.47] hour; the Model-derived effective half-life was in the range of 140 to 170 h; the “N, number of transit compartments” value is 5.520 [22.28]. Also, the VSS entry in series [2] was “≈ 6.8 L”. Further, in series [2] (sc), the “Q/F, inter-compartment clearance” value was 0.073 [11.14] L/h; the “VC/F, volume of the central compartment” value was 2.80 [7.39] L; the “VP/F, volume of the peripheral compartment” value is 3.96 [6.57] L; the “ka, absorption rate constant” value was 0.006 [4.33] 1/h. For the same substance, in series [3], the Weight loss is on record as 6%–7%. The Clinically reported half-life in series [4] was 134 to 180 h.
